Experimental data from patent EP3515493A1.

Target: HLA-DR, human (human)
Assay: cell-based or functional assay

| Substance | lysis rate (LDH cytotoxicity assay, Raji target cells) |
| --- | --- |
| Lym-1 CAR | 22% |
| Lym-2 CAR | 22% |
